{"source": "paper PMC10666025", "about": "“In pursuit of degenerative brain disease diagnosis: Dementia biomarkers detected by DNA aptamer-attached portable graphene biosensor”", "binders": {"B1": {"name": "Tau aptamer IT2 (ssDNA)", "DNA": "CAGCACCGTCAACTGAATAAGGACTGCTTAGGATTGCGATGATTCAGGGTGATGCGATGGAGATGT", "modifications": "3' amino"}, "B2": {"name": "alpha-synuclein aptamer F5R1 (ssDNA)", "DNA": "ATCGAGTGTGTACGGGGTCCGGTAGGGTGGCGAGGTCTTCCTGTCGTAGCAGGATCCA", "modifications": "3' amino"}}, "key": {"Tau, brain-derived": {"molecular_target": "Tau, brain-derived (human (AD patient brain), UniProt P10636-8 1-441)", "sequence (P10636 other isoform, or with tags, fused parts or gaps)": "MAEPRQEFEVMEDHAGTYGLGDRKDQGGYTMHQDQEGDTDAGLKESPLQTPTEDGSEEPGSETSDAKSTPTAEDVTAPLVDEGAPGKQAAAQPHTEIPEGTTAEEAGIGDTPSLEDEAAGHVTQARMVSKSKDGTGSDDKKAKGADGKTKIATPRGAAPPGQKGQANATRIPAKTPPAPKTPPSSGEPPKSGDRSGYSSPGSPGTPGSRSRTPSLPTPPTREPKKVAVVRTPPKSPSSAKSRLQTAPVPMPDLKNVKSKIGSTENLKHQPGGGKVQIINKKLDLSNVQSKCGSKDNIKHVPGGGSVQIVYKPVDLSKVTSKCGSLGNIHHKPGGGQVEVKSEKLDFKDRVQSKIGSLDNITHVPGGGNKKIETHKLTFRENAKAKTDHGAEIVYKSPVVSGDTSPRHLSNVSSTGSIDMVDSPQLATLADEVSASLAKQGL", "experiment": "GFET Dirac shift; detected to 10-100 fM; GFET with immobilised aptamer; protein in 0.1x PBS (LoD series) or PBS; aptamer dissolved in 1x PBS + 0.5 mM MgCl2; pH and temperature of binding not given", "conditions": "protein: native"}, "[1]": {"molecular_target": "Tau441 (synthetic/commercial) (human, UniProt P10636-8 1-441)", "sequence (P10636 other isoform, or with tags, fused parts or gaps)": "as above", "experiment": "GFET Dirac shift; LoD 1-10 pM in abstract, ~100 fM in Results (not a Kd); GFET with immobilised aptamer; protein in 0.1x PBS (LoD series) or PBS; aptamer dissolved in 1x PBS + 0.5 mM MgCl2; pH and temperature of binding not given"}, "[2]": {"molecular_target": "alpha-synuclein (synthetic/commercial) (UniProt P37840 1-140)", "experiment": "GFET Dirac shift; LoD 10-100 fM (not a Kd); GFET with immobilised aptamer; protein in 0.1x PBS (LoD series) or PBS; aptamer dissolved in 1x PBS + 0.5 mM MgCl2; pH and temperature of binding not given"}, "[3]": {"molecular_target": "alpha-synuclein, brain-derived (human (PD patient brain), UniProt P37840 1-140)", "experiment": "GFET Dirac shift; detected to 10-100 nM as printed; GFET with immobilised aptamer; protein in 0.1x PBS (LoD series) or PBS; aptamer dissolved in 1x PBS + 0.5 mM MgCl2; pH and temperature of binding not given"}, "[4]": {"molecular_target": "Amyloid-beta 1-42 (synthetic) (UniProt P05067 672-713)", "sequence (P05067 672-713)": "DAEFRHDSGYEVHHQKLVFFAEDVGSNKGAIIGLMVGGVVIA", "experiment": "GFET Dirac shift; LoD 10 fM (not a Kd); GFET with immobilised aptamer; protein in 0.1x PBS (LoD series) or PBS; aptamer dissolved in 1x PBS + 0.5 mM MgCl2; pH and temperature of binding not given"}, "[5]": {"molecular_target": "Amyloid-beta 1-42, brain-derived (human (AD patient brain), UniProt P05067 672-713)", "sequence (P05067 672-713)": "as above", "experiment": "GFET Dirac shift; detected to ~10 fM, dose-dependent; GFET with immobilised aptamer; protein in 0.1x PBS (LoD series) or PBS; aptamer dissolved in 1x PBS + 0.5 mM MgCl2; pH and temperature of binding not given", "conditions": "protein: native"}}}
{"binder": "B1", "values": [{"measurement": "binding result", "setting": "Tau, brain-derived", "result": "binds"}, {"measurement": "binding result", "setting": "[1]", "result": "binds"}]}
{"binder": "B2", "values": [{"measurement": "binding result", "setting": "[2]", "result": "binds"}, {"measurement": "binding result", "setting": "[3]", "result": "binds"}]}
{"binder": "CCGGTGGGGGACCAGTACAAAAGTGGGTAGGGCGGGTTGGAAAA (ssDNA, 3' amino)", "note": "[Abeta aptamer Abeta7-92-1H1]", "values": [{"measurement": "binding result", "setting": "[4]", "result": "binds"}, {"measurement": "binding result", "setting": "[5]", "result": "binds"}]}
